Where “and” joins values, the source holds several entries; their conditions need not be identical. Equal entries are not always repeated. Where two headings read alike, the source gives them in different places.

The target of assay [1] is T1, Vβ17 on human CD8+ T cells (human).
T1 chain: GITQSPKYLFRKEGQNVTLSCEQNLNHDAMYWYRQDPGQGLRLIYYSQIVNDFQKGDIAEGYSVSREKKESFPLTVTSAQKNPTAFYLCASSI
Briefly: FACS.

In assay [2] the target is T1, Vβ17 on human CD8+ T cells. Briefly: FACS. For orientation: A flow cytometer gives signals particle by particle.

B1: VB13 (Vβ17×Null) bispecific antibody (bispecific antibody)
heavy 1: QVQLQESGPGLVKPSETLSLTCTVSGYSITSGYFWNWIRQPPGKGLEWIGYISYDGSNNYNPSLKSRVTISRDTSKNQFSLKLSSVTAADTAVYYCASPSPGTGYAVDYWGQGTLVTVSSASTKGPSVFPLAPCSRSTSESTAALGCLVKDYFPEPVTVSWNSGALTSGVHTFPAVLQSSGLYSLSSVVTVPSSSLGTKTYTCNVDHKPSNTKVDKRVESKYGPPCPPCPAPEAAGGPSVFLFPPKPKDTLMISRTPEVTCVVVDVSQEDPEVQFNWYVDGVEVHNAKTKPREEQFNSTYRVVSVLTVLHQDWLNGKEYKCKVSNKGLPSSIEKTISKAKGQPREPQVYTLPPSQEEMTKNQVSLSCAVKGFYPSDIAVEWESNGQPENNYKTTPPVLDSDGSFFLVSRLTVDKSRWQEGNVFSCSVMHEALHNRFTQKSLSLSLGK
light 1: DIQMTQSPSSLSASVGDRVTITCRSSQSLVHSNGNTYLHWYQQKPGKAPKFLIYKVSNRFSGVPSRFSGSGSGTDFTLTISSLQPEDFATYYCSQSTHVPFTFGQGTKLEIKRTVAAPSVFIFPPSDEQLKSGTASVVCLLNNFYPREAKVQWKVDNALQSGNSQESVTEQDSKDSTYSLSSTLTLSKADYEKHKVYACEVTHQGLSSPVTKSFNRGEC
heavy 2: not shown
light 2: not shown
Take B1: the 50% effective concentration (EC50) is 12.6 nM in assay [1]; 1.4 nM and 1.5 nM in assay [2].

B2: VB11 (anti-Vβ17/anti-CD123) bispecific antibody (bispecific antibody)
heavy 1: QVQLQESGPGLVKPSETLSLTCTVSGYSITSGYFWNWIRQPPGKGLEWIGYISYDGSNNYNPSLKSRVTISRDTSKNQFSLKLSSVTAADTAVYYCASPSPGTGYAVDYWGQGTLVTVSSASTKGPSVFPLAPCSRSTSESTAALGCLVKDYFPEPVTVSWNSGALTSGVHTFPAVLQSSGLYSLSSVVTVPSSSLGTKTYTCNVDHKPSNTKVDKRVESKYGPPCPPCPAPEAAGGPSVFLFPPKPKDTLMISRTPEVTCVVVDVSQEDPEVQFNWYVDGVEVHNAKTKPREEQFNSTYRVVSVLTVLHQDWLNGKEYKCKVSNKGLPSSIEKTISKAKGQPREPQVYTLPPSQEEMTKNQVSLSCAVKGFYPSDIAVEWESNGQPENNYKTTPPVLDSDGSFFLVSRLTVDKSRWQEGNVFSCSVMHEALHNRFTQKSLSLSLGK
light 1: DIQMTQSPSSLSASVGDRVTITCRSSQSLVHSNGNTYLHWYQQKPGKAPKFLIYKVSNRFSGVPSRFSGSGSGTDFTLTISSLQPEDFATYYCSQSTHVPFTFGQGTKLEIKRTVAAPSVFIFPPSDEQLKSGTASVVCLLNNFYPREAKVQWKVDNALQSGNSQESVTEQDSKDSTYSLSSTLTLSKADYEKHKVYACEVTHQGLSSPVTKSFNRGEC
heavy 2: EVQLVQSGAEVKKPGESLKISCKGSGYSFTSYWISWVRQMPGKGLEWMGIIDPSDSDTRYSPSFQGQVTISADKSISTAYLQWSSLKASDTAMYYCARGDGSTDLDYWGQGTLVTVSSASTKGPSVFPLAPCSRSTSESTAALGCLVKDYFPEPVTVSWNSGALTSGVHTFPAVLQSSGLYSLSSVVTVPSSSLGTKTYTCNVDHKPSNTKVDKRVESKYGPPCPPCPAPEAAGGPSVFLFPPKPKDTLMISRTPEVTCVVVDVSQEDPEVQFNWYVDGVEVHNAKTKPREEQFNSTYRVVSVLTVLHQDWLNGKEYKCKVSNKGLPSSIEKTISKAKGQPREPQVYTLPPSQEEMTKNQVSLWCLVKGFYPSDIAVEWESNGQPENNYKTTPPVLDSDGSFFLYSRLTVDKSRWQEGNVFSCSVMHEALHNHYTQKSLSLSLGK
light 2: EIVLTQSPGTLSLSPGERATLSCRASQSVSSSYLAWYQQKPGQAPRLLIYGASSRATGIPDRFSGSGSGTDFTLTISRLEPEDFAVYYCQQDYGFPWTFGQGTKVEIKRTVAAPSVFIFPPSDEQLKSGTASVVCLLNNFYPREAKVQWKVDNALQSGNSQESVTEQDSKDSTYSLSSTLTLSKADYEKHKVYACEVTHQGLSSPVTKSFNRGEC
For B2, in assay [2], the EC50 is 0.8 nM and 1.26 nM.

As a reminder, the EC50 is the concentration at which the effect is half-maximal. A high value points to lower potency in that assay.

These data come from patent publication US20260234252A1 (published 2026).
